Experimental data published in paper PMC5450233, “SKIP controls lysosome positioning using a composite kinesin-1 heavy and light chain-binding domain” (Journal of Cell Science, 2017).

B1: GST–KHC(815-955) (domain or fragment)
chain: not shown
notes: 3C protease site between GST and KHC (pMW-GST); source: E. coli BL21(DE3), purified (glutathione–Sepharose beads)
B2: SKIP(1-310) (domain or fragment, UniProt Q8IWE5 1-310, looked up)
chain: MEPGEVKDRILENISLSVKKLQSYFAACEDEIPAIRNHDKVLQRLCEHLDHALLYGLQDLSSGYWVLVVHFTRREAIKQIEVLQHVATNLGRSRAWLYLALNENSLESYLRLFQENLGLLHKYYVKNALVCSHDHLTLFLTLVSGLEFIRFELDLDAPYLDLAPYMPDYYKPQYLLDFEDRLPSSVHGSDSLSLNSFNSVTSTNLEWDDSAIAPSSEDYDFGDVFPAVPSVPSTDWEDGDLTDTVSGPRSTASDLTSSKASTRSPTQRQNPFNEEPAETVSSSDTTPVHTTSQEKEEAQALDPPDACTEL
notes: SKIP (PLEKHM2), residues 1-310; also called SKIP(1-310) with GST removed by 3C protease; source: E. coli, purified as a GST fusion, GST cleaved with 3C protease

Tests used:
Conditions in all cases: both partners purified
SKIP(1-310) [1] = target: B2; test: pull-down; GST–KHC truncations (0.5 nmol) on glutathione–Sepharose beads incubated with 300 μl of 1.2 μM SKIP(1-310) for 2 h at 4°C; 25 mM HEPES pH 7.5, 150 mM NaCl, 5 mM β-mercaptoethanol; Coomassie-stained SDS-PAGE
SKIP(1-310) [2] = target: B2; test: pull-down; GST–KHC(815-955) (0.5 nmol) on glutathione beads incubated with increasing concentrations of SKIP(1-310) in solution (up to 3.5 μM); SDS-PAGE, Coomassie, densitometry; one-site specific binding model with Hill slope; non-equilibrium, value to be interpreted with caution
GST–KHC(815-955) = target: B1; test: as above
Sequence of GST–KHC(815-955) (P56536 815-955): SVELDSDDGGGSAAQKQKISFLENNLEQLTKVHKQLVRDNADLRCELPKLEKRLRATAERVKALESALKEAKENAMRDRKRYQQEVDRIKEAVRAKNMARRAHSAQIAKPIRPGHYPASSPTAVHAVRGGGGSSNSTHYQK

binding result (SKIP(1-310) [1])	Binder	also measured
binds	GST–KHC(876-917) (domain or fragment, source: E. coli BL21(DE3), purified (glutathione–Sepharose beads)) not shown	
	B1	Kd (SKIP(1-310) [2]): ~1.5 µM
	B2	stoichiometry N (GST–KHC(815-955)): 1
binds	GST–KHC(815-917) (domain or fragment, source: E. coli BL21(DE3), purified (glutathione–Sepharose beads)) not shown	
